# Experimental data published in US20170145112A1 (Genentech, published 2017).
# T1: Cynomolgus monkey complement Factor D (cynomolgus monkey, UniProt P00746 26-253 (human entry))
# T1 construct: also called cyfD; cFD
# T1 chain: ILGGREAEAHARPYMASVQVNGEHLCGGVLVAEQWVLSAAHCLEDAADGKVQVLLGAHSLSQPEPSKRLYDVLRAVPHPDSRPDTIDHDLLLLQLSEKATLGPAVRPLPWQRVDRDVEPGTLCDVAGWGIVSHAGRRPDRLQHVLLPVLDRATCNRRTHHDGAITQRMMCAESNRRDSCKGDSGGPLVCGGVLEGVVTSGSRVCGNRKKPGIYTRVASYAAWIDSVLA
# B1: AFD.v8.C + PEG tetramer (Fab, V domains shown)
# VH: EVQLVQSGPELKKPGASVKVSCKASGYTFTNYGMNWVRQAPGQGLEWMGWINTYTGETTYAEDFKGRFVFSLDTSVSTAYLQISSLKAEDTAVYYCEREGGVNNWGQGTLVTVSS
# VL: DIQVTQSPSSLSASVGDRVTITCITSTSIESDMNWYQQKPGKVPKLLISGGNTLRPGVPSRFSGSGSGTDFTLTISSLQPEDVATYYCLQSDSLPYTFGQGTKVEIKR
# modifications: C-terminal Cys linked through maleimide to 40K-tetramer-PEG (Sunbright PTE-400MA)
# B2: AFD.v14.C + PEG tetramer (Fab, V domains shown)
# VH: EVQLVQSGPELKKPGASVKVSCKASGYTFTNYGMNWVRQAPGQGLEWMGWINTYTGETTYAEDFKGRFVFSLDTSVSTAYLQISSLKAEDTAVYYCEREGGVSNWGQGTLVTVSS
# VL: DIQVTQSPSSLSASVGDRVTITCITSTSIESDMNWYQQKPGKVPKLLISGGNTLRPGVPSRFSGSGSGTDFTLTISSLQPEDVATYYCLQSDSLPYTFGQGTKVEIKR
# modifications: C-terminal Cys linked through maleimide to a PEG tetramer
# B3: hu20D12.v2.3.C + PEG tetramer (Fab, V domains shown)
# VH: EVQLVQSGAEVKKPGASVKVSCKASGYTFTSYYMYWVRQAPGQGLEWIGEINPYSGDTNFNEKFKSRATLTVDTSTSTAYLELSSLRSEDTAVYYCAREGGFAYWGQGTLVTVSS
# VL: DIQMTQSPSSLSASVGDRVTITCKASQNVDTDVAWFQQKPGKAPKGLIRSASSRYSGVPSRFSGSGSGTDFTLTISSLQPEDFATYYCQQYNNYPLTFGQGTKVEIKR
# modifications: C-terminal Cys linked through maleimide to 40K-tetramer-PEG (Sunbright PTE-400MA)
# B4: hu20D12.v2.2 Fab (Fab, V domains shown)
# VH: EVQLVQSGAEVKKPGASVKVSCKASGYTFTSYYMYWVRQAPGQGLEWIGEINPTSGDTNFNEKFKSRATLTVDTSTSTAYLELSSLRSEDTAVYYCAREGGFAYWGQGTLVTVSS
# VL: DIQMTQSPSSLSASVGDRVTITCKASQNVDTDVAWFQQKPGKAPKGLIYSASSRYSGVPSRFSGSGSGTDFTLTISSLQPEDFATYYCQQYNNYPLTFGQGTKVEIKR
# B5: hu20D12.v2.4 Fab (Fab, V domains shown)
# VH: EVQLVQSGAEVKKPGASVKVSCKASGYTFTSYYMYWVRQAPGQGLEWIGEINPTSGETNFNEKFKSRATLTVDTSTSTAYLELSSLRSEDTAVYYCAREGGFAYWGQGTLVTVSS
# VL: DIQMTQSPSSLSASVGDRVTITCKASQNVDTDVAWFQQKPGKAPKGLIYSASSRYSGVPSRFSGSGSGTDFTLTISSLQPEDFATYYCQQYNNYPLTFGQGTKVEIKR
# B6: hu20D12.v2.5 Fab (Fab, V domains shown)
# VH: EVQLVQSGAEVKKPGASVKVSCKASGYTFTSYYMYWVRQAPGQGLEWIGEINPYSGGTNFNEKFKSRATLTVDTSTSTAYLELSSLRSEDTAVYYCAREGGFAYWGQGTLVTVSS
# VL: DIQMTQSPSSLSASVGDRVTITCKASQNVDTDVAWFQQKPGKAPKGLIYSASSRYSGVPSRFSGSGSGTDFTLTISSLQPEDFATYYCQQYNNYPLTFGQGTKVEIKR
# B7: hu20D12.v2.6 Fab (Fab, V domains shown)
# VH: EVQLVQSGAEVKKPGASVKVSCKASGYTFTSYYMYWVRQAPGQGLEWIGEINPTSGGTNFNEKFKSRATLTVDTSTSTAYLELSSLRSEDTAVYYCAREGGFAYWGQGTLVTVSS
# VL: DIQMTQSPSSLSASVGDRVTITCKASQNVDTDVAWFQQKPGKAPKGLISSASSRYSGVPSRFSGSGSGTDFTLTISSLQPEDFATYYCQQYNNYPLTFGQGTKVEIKR
# B8: hu20D12.v2.7 Fab (Fab, V domains shown)
# VH: EVQLVQSGAEVKKPGASVKVSCKASGYTFTSYYMYWVRQAPGQGLEWIGEINPTSGGTNFNEKFKSRATLTVDTSTSTAYLELSSLRSEDTAVYYCAREGGFAYWGQGTLVTVSS
# VL: DIQMTQSPSSLSASVGDRVTITCKASQNVDTDVAWFQQKPGKAPKGLIKSASSRYSGVPSRFSGSGSGTDFTLTISSLQPEDFATYYCQQYNNYPLTFGQGTKVEIKR
# B9: hu20D12.v2.8 Fab (Fab, V domains shown)
# VH: EVQLVQSGAEVKKPGASVKVSCKASGYTFTSYYMYWVRQAPGQGLEWIGEINPTSGGTNFNEKFKSRATLTVDTSTSTAYLELSSLRSEDTAVYYCAREGGFAYWGQGTLVTVSS
# VL: DIQMTQSPSSLSASVGDRVTITCKASQNVDTDVAWFQQKPGKAPKGLIQSASSRYSGVPSRFSGSGSGTDFTLTISSLQPEDFATYYCQQYNNYPLTFGQGTKVEIKR
# B10: hu20D12.v2.9 Fab (Fab, V domains shown)
# VH: EVQLVQSGAEVKKPGASVKVSCKASGYTFTSYYMYWVRQAPGQGLEWIGWINPTSGGTNFNEKFKSRATLTVDTSTSTAYLELSSLRSEDTAVYYCAREGGFAYWGQGTLVTVSS
# VL: DIQMTQSPSSLSASVGDRVTITCKASQNVDTDVAWFQQKPGKAPKGLIYSASSRYSGVPSRFSGSGSGTDFTLTISSLQPEDFATYYCQQYNNYPLTFGQGTKVEIKR
# B11: hu20D12.v2.10 Fab (Fab, V domains shown)
# VH: EVQLVQSGAEVKKPGASVKVSCKASGYTFTSYYMYWVRQAPGQGLEWIGEINPTSGGTNFNEKFKSRATLTVDTSTSTAYLELSSLRSEDTAVYYCAREGGFAYWGQGTLVTVSS
# VL: DIQMTQSPSSLSASVGDRVTITCKASQNVDTDVAWFQQKPGKAPKGLIYSASSRKSGVPSRFSGSGSGTDFTLTISSLQPEDFATYYCQQYNNYPLTFGQGTKVEIKR
# B12: hu20D12.v2.11 Fab (Fab, V domains shown)
# VH: EVQLVQSGAEVKKPGASVKVSCKASGYTFTSYYMYWVRQAPGQGLEWIGEINPTSGGTNFNEKFKSRATLTVDTSTSTAYLELSSLRSEDTAVYYCAREGGFAYWGQGTLVTVSS
# VL: DIQMTQSPSSLSASVGDRVTITCKASQNVDTDVAWFQQKPGKAPKGLIYSASSRRSGVPSRFSGSGSGTDFTLTISSLQPEDFATYYCQQYNNYPLTFGQGTKVEIKR
# B13: hu20D12.v2.12 Fab (Fab, V domains shown)
# VH: EVQLVQSGAEVKKPGASVKVSCKASGYTFTSYYMYWVRQAPGQGLEWIGEINPYSGGTNFNEKFKSRATLTVDTSTSTAYLELSSLRSEDTAVYYCAREGGFAYWGQGTLVTVSS
# VL: DIQMTQSPSSLSASVGDRVTITCKASQNVDTDVAWFQQKPGKAPKGLIRSASSRYSGVPSRFSGSGSGTDFTLTISSLQPEDFATYYCQQYNNYPLTFGQGTKVEIKR
# B14: hu20D12.v2.13 Fab (Fab, V domains shown)
# VH: EVQLVQSGAEVKKPGASVKVSCKASGYTFTSYYMYWVRQAPGQGLEWIGEINPTSGGTNFNEKFKSRATLTVDTSTSTAYLELSSLRSEDTAVYYCAREGGFAYWGQGTLVTVSS
# VL: DIQMTQSPSSLSASVGDRVTITCKASQNVDTDVAWFQQKPGKAPKGLIRSASSRYSGVPSRFSGSGSGTDFTLTISSLQPEDFATYYCQQYENYPLTFGQGTKVEIKR
# B15: hu20D12.v2.14 Fab (Fab, V domains shown)
# VH: EVQLVQSGAEVKKPGASVKVSCKASGYTFTSYYMYWVRQAPGQGLEWIGEINPTSGETNFNEKFKSRATLTVDTSTSTAYLELSSLRSEDTAVYYCAREGGFAYWGQGTLVTVSS
# VL: DIQMTQSPSSLSASVGDRVTITCKASQNVDTDVAWFQQKPGKAPKGLIRSASSRYSGVPSRFSGSGSGTDFTLTISSLQPEDFATYYCQQYNNYPLTFGQGTKVEIKR
# B16: AFD.v8 Fab (Fab, V domains shown)
# VH: EVQLVQSGPELKKPGASVKVSCKASGYTFTNYGMNWVRQAPGQGLEWMGWINTYTGETTYAEDFKGRFVFSLDTSVSTAYLQISSLKAEDTAVYYCEREGGVNNWGQGTLVTVSS
# VL: DIQVTQSPSSLSASVGDRVTITCITSTSIESDMNWYQQKPGKVPKLLISGGNTLRPGVPSRFSGSGSGTDFTLTISSLQPEDVATYYCLQSDSLPYTFGQGTKVEIKR
# notes: Variant of lampalizumab
# B17: Lampalizumab (Fab, V domains shown)
# VH: EVQLVQSGPELKKPGASVKVSCKASGYTFTNYGMNWVRQAPGQGLEWMGWINTYTGETTYADDFKGRFVFSLDTSVSTAYLQISSLKAEDTAVYYCEREGGVNNWGQGTLVTVSS
# VL: DIQVTQSPSSLSASVGDRVTITCITSTDIDDDMNWYQQKPGKVPKLLISGGNTLRPGVPSRFSGSGSGTDFTLTISSLQPEDVATYYCLQSDSLPYTFGQGTKVEIKR
# notes: Humanized anti-Factor D Fab fragment; also called aFD.WT; FCFD4515S
# Key:
# [1] = target: T2, Human complement Factor D, mature (human, UniProt P00746 27-253); assay: cell-based or functional assay
# Target sequence in this assay (P00746 27-253): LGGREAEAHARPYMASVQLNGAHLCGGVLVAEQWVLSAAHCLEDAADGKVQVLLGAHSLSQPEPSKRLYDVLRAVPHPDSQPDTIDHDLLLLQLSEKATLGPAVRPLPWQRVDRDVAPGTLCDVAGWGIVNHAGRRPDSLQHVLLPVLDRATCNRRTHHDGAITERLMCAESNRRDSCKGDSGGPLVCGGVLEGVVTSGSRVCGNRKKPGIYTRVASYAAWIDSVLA
# [2] = target: T2, Human complement Factor D, mature; assay: SPR (Biacore T200): Fab captured with anti-huFab kit, human Factor D injected, 25 C, 1:1 model;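 note: sensorgrams were corrected by subtracting a blank injection of running buffer before fitting kinetic and affinity constants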
# Procedure: (§1) Kinetics and binding constant KD for Factor D binding to immobilized hu20D12 versions was determined by surface plasmon resonance (SPR) measurements on a Biacore®T200 instrument. […] After subtraction of the sensorgram observed for injection of running buffer, data were analyzed according to a 1:1 model using BiaEval software v4.1 (GE Healthcare) to extract the kinetics and affinity constants.
# [3] = target: T2, Human complement Factor D, mature; assay: SPR, at the limit of detection
# Target sequence in this assay (P00746 27-253): as above
# Procedure: as §1
# [4] = target: T2, Human complement Factor D, mature; assay: cell-based or functional assay; remark: listed apart in the source
# [5] = target: T1, Cynomolgus monkey complement Factor D; assay: SPR (Biacore T200), Fab format; cynomolgus Factor D (column 'KD (pM) cFD (cyno)')
Binder,Kd [2] [pM],koff [2] [s⁻¹],kon [2] [M⁻¹ s⁻¹],further results
B1,,,,"AVG IC50 (pM), TR-FRET assay of Factor D-dependent factor B activation [1]: 11 pM"
B2,,,,"AVG IC50 (pM), TR-FRET assay of Factor D-dependent factor B activation [1]: 14.8 pM"
B3,,,,"AVG IC50 (pM), TR-FRET assay of Factor D-dependent factor B activation [1]: 35.2 pM"
B4,65,0.00095,1.5e+07,
B5,28,0.00049,1.7e+07,
B6,45,0.00079,1.7e+07,
B7,143,0.0003,2.1e+06,
B8,49,0.00055,1.1e+07,
B9,61,0.004,6.6e+07,
B10,185,0.0063,3.4e+07,
B11,6000,0.03,5e+06,
B12,10000,0.03,3e+06,
B13,< 10,0.00015,1.8e+07,Kd [3]: ~10 pM
B14,< 10,0.00013,4.1e+07,Kd [3]: ~10 pM
B15,< 10,8e-05,1.5e+07,FRET IC50 (TR-FRET assay of Factor D-dependent factor B activation) [4]: 25 pM; Kd [3]: ~10 pM; Kd [5]: 50 pM
B16,10.5,0.00021,2e+07,"AVG IC50 (pM), TR-FRET assay of Factor D-dependent factor B activation [1]: 27.6 pM; FRET IC50 (TR-FRET assay of Factor D-dependent factor B activation), value 1 of 2 in the cell [4]: 21 pM; FRET IC50 (TR-FRET assay of Factor D-dependent factor B activation), value 2 of 2 in the cell [4]: 28 pM; Kd [5]: 24 pM"
B17,,,,Kd [5]: 30 pM
